Assay results: paper PMC11619291, “Functional and structural analyses of IMP-27 metallo-β-lactamase: evolution of IMP-type enzymes to overcome Zn(II) deprivation” (Microbiology Spectrum, 2024)

Legend:
Experiment in all cases: purified protein
Conditions in all cases: no added Zn(II), 20 mM HEPES pH 7.5, 30°C
[1] = test system: CC1=C(C(=O)O)N2C(=O)[C@@H](NC(=O)[C@H](N)c3ccccc3)[C@H]2SC1
[2] = test system: CC(=O)OCC1=C(C(=O)O)N2C(=O)[C@@H](NC(=O)Cc3cccs3)[C@H]2SC1; assay type: biochemical, Serratia marcescens
From the text: (§1) steady-state hydrolysis, UV-VIS spectrophotometry on IMP-1

[3] = test system: CC(C)(O/N=C(\C(=O)N[C@@H]1C(=O)N2C(C(=O)[O-])=C(C[n+]3ccccc3)CS[C@H]12)c1csc(N)n1)C(=O)O; assay type: biochemical, Serratia marcescens
From the text: as §1

[4] = test system: CC1(C)S[C@@H]2[C@H](NC(=O)Cc3ccccc3)C(=O)N2[C@H]1C(=O)O; assay type: biochemical, Serratia marcescens
From the text: as §1

[5] = test system: CC1(C)S[C@@H]2[C@H](NC(=O)[C@H](N)c3ccccc3)C(=O)N2[C@H]1C(=O)O; assay type: biochemical, Serratia marcescens
From the text: as §1

[6] = test system: CO/N=C(\C(=O)N[C@@H]1C(=O)N2C(C(=O)O)=C(COC(C)=O)CS[C@H]12)c1csc(N)n1; assay type: biochemical, Serratia marcescens
From the text: as §1

[7] = test system: C[C@@H](O)[C@H]1C(=O)N2C(C(=O)O)=C(SCCN=CN)C[C@H]12; assay type: biochemical, Serratia marcescens
From the text: as §1

[8] = test system: C[C@@H](O)[C@H]1C(=O)N2C(C(=O)O)=C(S[C@@H]3CN[C@H](C(=O)N(C)C)C3)[C@H](C)[C@H]12; assay type: biochemical, Serratia marcescens
From the text: as §1

[9] = test system: CC(=O)OCC1=C(C(=O)O)N2C(=O)[C@@H](NC(=O)Cc3cccs3)[C@H]2SC1; assay type: biochemical, Morganella morganii
From the text: (§2) steady-state hydrolysis, UV-VIS spectrophotometry on IMP-27

[10] = test system: CC(C)(O/N=C(\C(=O)N[C@@H]1C(=O)N2C(C(=O)[O-])=C(C[n+]3ccccc3)CS[C@H]12)c1csc(N)n1)C(=O)O; assay type: biochemical, Morganella morganii
From the text: as §2

[11] = test system: CC1(C)S[C@@H]2[C@H](NC(=O)Cc3ccccc3)C(=O)N2[C@H]1C(=O)O; assay type: biochemical, Morganella morganii
From the text: as §2

[12] = test system: CC1(C)S[C@@H]2[C@H](NC(=O)[C@H](N)c3ccccc3)C(=O)N2[C@H]1C(=O)O; assay type: biochemical, Morganella morganii
From the text: as §2

[13] = test system: CO/N=C(\C(=O)N[C@@H]1C(=O)N2C(C(=O)O)=C(COC(C)=O)CS[C@H]12)c1csc(N)n1; assay type: biochemical, Morganella morganii
From the text: as §2

[14] = test system: C[C@@H](O)[C@H]1C(=O)N2C(C(=O)O)=C(S[C@@H]3CN[C@H](C(=O)N(C)C)C3)[C@H](C)[C@H]12; assay type: biochemical, Morganella morganii
From the text: as §2

IMP-1 (Serratia marcescens)
Km [1]: 18.5 ± 2.9 µM | kcat [1]: 75.1 s⁻¹ | kcat/Km [1]: 4.06e+06 M⁻¹ s⁻¹ | Km [2]: 1.62 ± 0.21 µM | kcat [2]: 82.5 ± 5.9 s⁻¹ | kcat/Km [2]: 5.11e+07 M⁻¹ s⁻¹ | Km [3]: 38.1 ± 1.6 µM | kcat [3]: 14.2 ± 0.8 s⁻¹ | kcat/Km [3]: 373000 M⁻¹ s⁻¹ | Km [4]: 144 ± 6 µM | kcat [4]: 367 ± 38 s⁻¹ | kcat/Km [4]: 2.56e+06 M⁻¹ s⁻¹ | Km [5]: 41.8 ± 7.6 µM | kcat [5]: 37.6 ± 3.1 s⁻¹ | kcat/Km [5]: 899000 M⁻¹ s⁻¹ | Km [6]: 3.44 ± 0.12 µM | kcat [6]: 26 ± 1.8 s⁻¹ | kcat/Km [6]: 7.55e+06 M⁻¹ s⁻¹ | Km [7]: 48.6 ± 10.2 µM | kcat [7]: 87.6 ± 4.5 s⁻¹ | kcat/Km [7]: 1.88e+06 M⁻¹ s⁻¹ | Km [8]: 83.3 ± 16.1 µM | kcat [8]: 25.1 ± 4.4 s⁻¹ | kcat/Km [8]: 301000 M⁻¹ s⁻¹

IMP-27 (Morganella morganii)
Km [1]: 5.47 ± 0.53 µM | kcat [1]: 1.19 s⁻¹ | kcat/Km [1]: 217000 M⁻¹ s⁻¹ | Km [9]: 9.23 ± 0.88 µM | kcat [9]: 290 ± 39 s⁻¹ | kcat/Km [9]: 3.14e+07 M⁻¹ s⁻¹ | Km [10]: 27.5 ± 3.4 µM | kcat [10]: 2.02 ± 0.3 s⁻¹ | kcat/Km [10]: 73200 M⁻¹ s⁻¹ | Km [11]: 218 ± 28 µM | kcat [11]: 20.3 ± 2.2 s⁻¹ | kcat/Km [11]: 93200 M⁻¹ s⁻¹ | kcat [12]: > 7.25 s⁻¹ | kcat/Km [12]: 28800 M⁻¹ s⁻¹ | Km [13]: 6.57 ± 0.96 µM | kcat [13]: 50.7 ± 6.6 s⁻¹ | kcat/Km [13]: 7.72e+06 M⁻¹ s⁻¹ | Km [14]: 4.21 ± 0.29 µM | kcat [14]: 6.79 ± 0.8 s⁻¹ | kcat/Km [14]: 1.63e+06 M⁻¹ s⁻¹
